Measurements published in the supplement of paper PMC10567573.

B1: RAB11A (parent)
chain: AVPTDEARAFAEKNGLSFIETSAL

Variants of: B1
Assay: protein stability index of a GFP-peptide fusion (GPS, HEK-293T) (PSI 1-6); higher = more stable
Conditions: c terminus: a fixed tail appended
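Note: lentivirally expressed fusions sorted by FACS into six bins by GFP to DsRed ratio, PSI derived from sequencing read proportions per bin multiplied by bin number.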

Row | Variant | protein stability index
1 | AVPHDEARAFAEKNGLSFIETSAL [T4H] | 2.6
2 | AVPKDEARAFAEKNGLSFIETSAL [T4K] | 2.39
3 | APPTDEARAFAEKNGLSFIETSAL [V2P] | 2.98
4 | AFPTDEARAFAEKNGLSFIETSAL [V2F] | 2.35
5 | AWPTDEARAFAEKNGLSFIETSAL [V2W] | 2.05
6 | ALPTDEARAFAEKNGLSFIETSAL [V2L] | 2.48
7 | AQPTDEARAFAEKNGLSFIETSAL [V2Q] | 2
8 | AHPTDEARAFAEKNGLSFIETSAL [V2H] | 2.46
9 | AIPTDEARAFAEKNGLSFIETSAL [V2I] | 2.18
10 | AKPTDEARAFAEKNGLSFIETSAL [V2K] | 2.11
11 | ANPTDEARAFAEKNGLSFIETSAL [V2N] | 2.52
12 | AYPTDEARAFAEKNGLSFIETSAL [V2Y] | 2.49
13 | ADPTDEARAFAEKNGLSFIETSAL [V2D] | 2.74
14 | AGPTDEARAFAEKNGLSFIETSAL [V2G] | 2.73
15 | ARPTDEARAFAEKNGLSFIETSAL [V2R] | 2.56
16 | AAPTDEARAFAEKNGLSFIETSAL [V2A] | 2.51
17 | ASPTDEARAFAEKNGLSFIETSAL [V2S] | 2.48
18 | AEPTDEARAFAEKNGLSFIETSAL [V2E] | 2.97
19 | ATPTDEARAFAEKNGLSFIETSAL [V2T] | 2.47
20 | AMPTDEARAFAEKNGLSFIETSAL [V2M] | 2.67
21 | ACPTDEARAFAEKNGLSFIETSAL [V2C] | 2.15
22 | AVPTDEARAFKEKNGLSFIETSAL [A11K] | 1.96
23 | AVPTDEARAFEEKNGLSFIETSAL [A11E] | 2.76
24 | AVPTDEARAFFEKNGLSFIETSAL [A11F] | 1.94

Row | Variant | protein stability index
25 | AVPTDEARAFTEKNGLSFIETSAL [A11T] | 2.31
26 | AVPTDEARAFGEKNGLSFIETSAL [A11G] | 1.97
27 | AVPTDEARAFREKNGLSFIETSAL [A11R] | 2.12
28 | AVPTDEARAFNEKNGLSFIETSAL [A11N] | 2.5
29 | AVPTDEARAFQEKNGLSFIETSAL [A11Q] | 2.21
30 | AVPTDEARAFLEKNGLSFIETSAL [A11L] | 2.32
31 | AVPTDEARAFSEKNGLSFIETSAL [A11S] | 2.63
32 | AVPTDEARAFIEKNGLSFIETSAL [A11I] | 1.91
33 | AVPTDEARAFHEKNGLSFIETSAL [A11H] | 2.64
34 | AVPTDEARAFMEKNGLSFIETSAL [A11M] | 2.24
35 | AVPTDEARAFDEKNGLSFIETSAL [A11D] | 3.24
36 | AVPTDEARAFCEKNGLSFIETSAL [A11C] | 2.32
37 | AVPTDEARAFPEKNGLSFIETSAL [A11P] | 2.33
38 | AVPTDELRAFAEKNGLSFIETSAL [A7L] | 2.28
39 | AVPTDEGRAFAEKNGLSFIETSAL [A7G] | 2.17
40 | AVPTDEQRAFAEKNGLSFIETSAL [A7Q] | 2.87
41 | AVPTDEKRAFAEKNGLSFIETSAL [A7K] | 2.19
42 | AVPTDEPRAFAEKNGLSFIETSAL [A7P] | 2.04
43 | AVPTDERRAFAEKNGLSFIETSAL [A7R] | 2.46
44 | AVPTDEHRAFAEKNGLSFIETSAL [A7H] | 2.43
45 | AVPTDEVRAFAEKNGLSFIETSAL [A7V] | 2.25
46 | AVPTDENRAFAEKNGLSFIETSAL [A7N] | 2.33
47 | AVPTDEYRAFAEKNGLSFIETSAL [A7Y] | 2.45
48 | AVPTDEDRAFAEKNGLSFIETSAL [A7D] | 2.99

Row | Variant | protein stability index
49 | AVPTDEFRAFAEKNGLSFIETSAL [A7F] | 2.48
50 | AVPTDEERAFAEKNGLSFIETSAL [A7E] | 3.29
51 | AVPTDEIRAFAEKNGLSFIETSAL [A7I] | 2.21
52 | AVPTDESRAFAEKNGLSFIETSAL [A7S] | 2.68
53 | AVPTDEWRAFAEKNGLSFIETSAL [A7W] | 2.09
54 | AVPTDEMRAFAEKNGLSFIETSAL [A7M] | 2.05
55 | AVPTDECRAFAEKNGLSFIETSAL [A7C] | 1.83
56 | AVPTDETRAFAEKNGLSFIETSAL [A7T] | 2.57
57 | AVNTDEARAFAEKNGLSFIETSAL [P3N] | 2.77
58 | AVCTDEARAFAEKNGLSFIETSAL [P3C] | 1.67
59 | AVVTDEARAFAEKNGLSFIETSAL [P3V] | 2.14
60 | AVQTDEARAFAEKNGLSFIETSAL [P3Q] | 2.78
61 | AVITDEARAFAEKNGLSFIETSAL [P3I] | 2.36
62 | AVGTDEARAFAEKNGLSFIETSAL [P3G] | 2.41
63 | AVETDEARAFAEKNGLSFIETSAL [P3E] | 2.47
64 | AVLTDEARAFAEKNGLSFIETSAL [P3L] | 2.59
65 | AVDTDEARAFAEKNGLSFIETSAL [P3D] | 3.01
66 | AVKTDEARAFAEKNGLSFIETSAL [P3K] | 2.55
67 | AVATDEARAFAEKNGLSFIETSAL [P3A] | 2.61
68 | AVRTDEARAFAEKNGLSFIETSAL [P3R] | 2.07
69 | AVHTDEARAFAEKNGLSFIETSAL [P3H] | 2.54
70 | AVMTDEARAFAEKNGLSFIETSAL [P3M] | 2.47
71 | AVSTDEARAFAEKNGLSFIETSAL [P3S] | 2.57
72 | AVTTDEARAFAEKNGLSFIETSAL [P3T] | 2.81

Row | Variant | protein stability index
73 | AVYTDEARAFAEKNGLSFIETSAL [P3Y] | 2.23
74 | AVFTDEARAFAEKNGLSFIETSAL [P3F] | 2.23
75 | AVWTDEARAFAEKNGLSFIETSAL [P3W] | 2.08
76 | AVPTDEAEAFAEKNGLSFIETSAL [R8E] | 3.25
77 | AVPTDEAGAFAEKNGLSFIETSAL [R8G] | 2.63
78 | AVPTDEAPAFAEKNGLSFIETSAL [R8P] | 1.86
79 | AVPTDEAKAFAEKNGLSFIETSAL [R8K] | 2.61
80 | AVPTDEANAFAEKNGLSFIETSAL [R8N] | 2.64
81 | AVPTDEAYAFAEKNGLSFIETSAL [R8Y] | 1.99
82 | AVPTDEAMAFAEKNGLSFIETSAL [R8M] | 2.4
83 | AVPTDEAAAFAEKNGLSFIETSAL [R8A] | 2.64
84 | AVPTDEACAFAEKNGLSFIETSAL [R8C] | 2.32
85 | AVPTDEAIAFAEKNGLSFIETSAL [R8I] | 2.59
86 | AVPTDEATAFAEKNGLSFIETSAL [R8T] | 2.84
87 | AVPTDEASAFAEKNGLSFIETSAL [R8S] | 2.68
88 | AVPTDEADAFAEKNGLSFIETSAL [R8D] | 2.82
89 | AVPTDEAQAFAEKNGLSFIETSAL [R8Q] | 2.66
90 | AVPTDEAFAFAEKNGLSFIETSAL [R8F] | 1.97
91 | AVPTDEAWAFAEKNGLSFIETSAL [R8W] | 2.46
92 | AVPTDEAHAFAEKNGLSFIETSAL [R8H] | 2.7
93 | AVPTDEALAFAEKNGLSFIETSAL [R8L] | 2.16
94 | AVPTDEAVAFAEKNGLSFIETSAL [R8V] | 2.72
